Assay results: patent US20170015742A1 (published 2017)
Changes are numbered by the printed parent chain.

Legend:
[1] = target: T1, recombinant human PDGF-BB (human, UniProt P01127 82-190, biotin-labelled in the binding and competition ELISAs (sites not given)); experiment: receptor competition ELISA: antibody pre-incubated with biotin-hPDGF-BB, binding to coated hPDGF-Rβ-Fc
T1 construct: Bought protein (CST cat#8912BF) in the ELISAs and cell assays; purified recombinant PDGF-BB in Biacore; also called huPDGF-BB; hPDGF-BB
Procedure: (§1) Plates were then washed four times with wash buffer (TBS, 0.05% Tween-20) and blocked with Superblock blocking buffer (Thermo Scientific, cat#37535). During the blocking step, supernatants, antibodies, benchmark compounds or DVD-Ig were diluted in assay diluent (10% Superblock containing 0.05% surfactamps) and an eight point titration of each sample molecule was performed. […] Following incubation, plates were washed four times with wash buffer. Detection reagent Streptavidin-polyHRP-40 (Fitzgerald, cat#65r-s104phrp) was diluted in assay diluent and added to plates (50 μL) for 45 minutes at 25° C. with shaking. Plates were washed four times with wash buffer and developed with the addition of Enhanced K-blue TMB substrate (Neogen, cat#308177). The reaction was stopped with 2N sulfuric acid (VWR, cat# BDH3500-1) and the absorbance was read at 450 nm-570 nm. […] Data was analyzed using Softmax Pro 4.8 software and IC₅₀ values calculated using a sigmoidal dose response (variable slope) fit in GraphPad Prism 5.

[2] = target: T1, recombinant human PDGF-BB; experiment: direct binding ELISA, biotin-hPDGF-BB on neutravidin plates, antibody titrated
Procedure: Plates were then washed four times with wash buffer (TBS, 0.05% Tween-20). The sample molecule titration was added to the coated plate at 50 μL in duplicate and incubated for one hour at 25° C. with shaking. Following incubation, plates were washed four times with wash buffer. The appropriate anti-species-IgG HRP conjugate was in assay diluent (10% Superblock containing 0.05% surfactamps) and added to plates (50 μL) for one hour at 25° C. with shaking. Plates were washed four times with wash buffer and developed with the addition of Enhanced K-blue TMB substrate (Neogen, cat#308177). The reaction was stopped with 2N sulfuric acid (VWR, cat# BDH3500-1) and the absorbance was read at 450 nm-570 nm. […] Data was analyzed using Softmax Pro 4.8 software and IC₅₀ values calculated using a sigmoidal dose response (variable slope) fit in GraphPad Prism 5.

recombinant rat PDGF-BB = recombinant rat PDGF-BB (rat, UniProt Q05028 74-182); experiment: cell-based or functional assay
[3] = target: T1, recombinant human PDGF-BB; experiment: cell-based or functional assay
[4] = target: T1, recombinant human PDGF-BB; experiment: Biacore SPR, antibody captured by anti-human Fc, PDGF-BB injected
Procedure: For example, approximately 9000 RU of goat anti-human Fc specific polyclonal antibody (Thermo Fisher Scientific Inc., Rockford, Ill.) diluted in 10 mM sodium acetate (pH 4.5) is directly immobilized across a CM5 research grade biosensor chip using a standard amine coupling kit according to manufacturer's instructions and procedures at 25 μg/ml. Unreacted moieties on the biosensor surface were blocked with ethanolamine. For kinetic analysis, rate equations derived from the 1:1 Langmuir binding model were fitted simultaneously to multiple antigen injections (using global fit analysis) with the use of Scrubber 2 (BioLogic Software), Biacore Biaevaluation 4.0.1 software or Biacore T100 Evaluation software. Purified antibodies or DVD-Ig molecules were diluted in running buffer for capture across goat anti-human Fc reaction surfaces. Antibodies or DVD-Ig molecules to be captured as a ligand (1 μg/ml) were injected over reaction matrices at a flow rate of 10 μl/minute. During the assay, all measurements were referenced against the capture surface alone (i.e., with no captured antibody or DVD-Ig molecule). […] The equilibrium dissociation constant KD (M) of the reaction between antibodies and the target antigen was then calculated from the kinetic rate constants by the following formula: KD=Koff/Kₒₙ. Binding was recorded as a function of time and kinetic rate constants were calculated.

[5] = target: T2, recombinant human PDGF-BB (human, UniProt P01127 82-190); experiment: cell-based or functional assay
[6] = target: T2, recombinant human PDGF-BB; experiment: competition ELISA: antibody pre-incubated with hPDGF-BB-biotin, then added to coated hPDGF-Rβ-Fc (competitor)
Procedure: as §1

[7] = target: T3, recombinant human PDGF-Rβ-Fc (R&D Systems #385-PR) (human, UniProt P09619 33-530); experiment: competition ELISA: antibody on coated hPDGFRβ-Fc against hPDGF-BB-biotin (Example 1.27)
T3 construct: Bought reagent; also called hPDGFRβ-Fc; huPDGF Rβ; not shown: Fc part of the bought fusion protein
Procedure: (§2) Plates were then washed four times with wash buffer (TBS, 0.05% Tween-20) and blocked with Superblock blocking buffer (Thermo Scientific, cat#37535). During the blocking step, supernatants, antibodies and benchmark compounds were diluted in assay diluent (10% Superblock containing 0.05% surfactamps) and an eight point titration of each sample molecule was performed. The samples were added to wells and incubated for 30 minutes at 25° C. with shaking. […] This was added to wells (10 ng/mL/3.97E-10 M final concentration) and incubation was continued for 35 minutes at 25° C. with shaking. Following incubation, plates were washed four times with wash buffer. Detection reagent Streptavidin-polyHRP-40 (Fitzgerald, cat#65r-s104phrp) was diluted in assay diluent and added to plates (50 μL) for 45 minutes at 25° C. with shaking. Plates were washed four times with wash buffer and developed with the addition of Enhanced K-blue TMB substrate (Neogen, cat#308177). The reaction was stopped with 2N sulfuric acid (VWR, cat# BDH3500-1) and the absorbance was read at 450 nm-570 nm. […] Data was analyzed using Softmax Pro 4.8 software and IC₅₀ values calculated using a sigmoidal dose response (variable slope) fit in GraphPad Prism 5.

[8] = target: T4, recombinant human PDGF-Rβ-Fc (human, UniProt P09619 33-530); experiment: competition ELISA: antibody added to coated hPDGF-Rβ-Fc, then hPDGF-BB-biotin (competitor)
T4 construct: also called hPDGFRβ-Fc; hPDGF-Rβ; not shown: Fc part of the bought fusion protein
Procedure: as §2

[9] = target: T5, VEGF-A (recombinant; human VEGF-A 165) (human, UniProt P15692 207-395); experiment: Biacore SPR; binding protein captured on goat anti-human Fc, antigen injected (Example 1.1)
T5 construct: also called hVEGF165

[10] = target: T6, PDGF-BB (recombinant; human PDGF-BB) (human, UniProt P01127 82-190, limits assumed); experiment: as above
T6 construct: PDGF-BB is a homodimer of two B chains; also called hPDGF-BB
T6 sequence (P01127 82-190 limits assumed): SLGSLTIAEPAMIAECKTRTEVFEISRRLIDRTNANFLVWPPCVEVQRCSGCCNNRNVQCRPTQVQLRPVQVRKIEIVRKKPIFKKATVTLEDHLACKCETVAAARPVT

T1 sequence (P01127 82-190 limits assumed): as above
T2 sequence (P01127 82-190 limits assumed): as above
Chain of recombinant rat PDGF-BB (Q05028 74-182 limits assumed): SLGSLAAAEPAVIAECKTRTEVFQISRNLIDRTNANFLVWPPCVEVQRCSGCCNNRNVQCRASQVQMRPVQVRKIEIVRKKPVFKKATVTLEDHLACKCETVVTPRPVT
T5 sequence (P15692 other isoform, or with tags, fused parts or gaps limits assumed): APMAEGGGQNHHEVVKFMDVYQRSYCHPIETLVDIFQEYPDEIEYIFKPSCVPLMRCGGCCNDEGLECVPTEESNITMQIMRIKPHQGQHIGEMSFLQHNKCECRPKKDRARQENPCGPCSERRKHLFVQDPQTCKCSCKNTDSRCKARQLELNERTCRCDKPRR
T3 sequence (P09619 33-530 limits assumed): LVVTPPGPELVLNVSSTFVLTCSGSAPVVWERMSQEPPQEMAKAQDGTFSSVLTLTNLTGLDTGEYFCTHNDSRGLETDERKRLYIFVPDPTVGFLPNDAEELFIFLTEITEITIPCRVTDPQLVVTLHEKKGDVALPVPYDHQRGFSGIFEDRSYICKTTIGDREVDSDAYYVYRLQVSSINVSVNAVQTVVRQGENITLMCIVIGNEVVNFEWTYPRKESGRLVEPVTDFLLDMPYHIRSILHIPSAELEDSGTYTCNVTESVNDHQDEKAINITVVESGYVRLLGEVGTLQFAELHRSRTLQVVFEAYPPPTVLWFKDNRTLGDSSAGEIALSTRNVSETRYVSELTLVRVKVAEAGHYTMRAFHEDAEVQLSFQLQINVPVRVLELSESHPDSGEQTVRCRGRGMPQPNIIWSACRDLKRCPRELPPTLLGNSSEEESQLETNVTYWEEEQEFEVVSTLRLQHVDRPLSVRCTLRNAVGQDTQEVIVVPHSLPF
T4 sequence (P09619 33-530 limits assumed): as above

B1: chBDI-9E8 (antibody, V domains shown)
VH: QVTLKESGPGILQPSQTLSLTCTFSGFSLSTYGMGVGWIRQPSGKGLEWLANIWWDDDKYYNPSLKNRLTISKDTSNNQAFLKITNVDTADTATYYCARIESIGTTYSFDYWGQGVMVTVSS
VL: QFTLTQPKSVSGSLRSTITIPCERSSGDIGDSYVSWYQQHLGRPPINVIYADDQRPSEVSDRFSGSIDSSSNSASLTITNLQMDDEADYFCQSYDINIDIVFGGGTKLTVL
notes: also called chimeric BDI-9E8-E7
IC50 [1]: 0.791 nM
EC50 [2]: 0.38 nM
ratPDGF-BB Neutralization Potency (nM) in NIH-3T3 Cells (recombinant rat PDGF-BB): 0.075 nM
huPDGF-BB Neutralization Potency (nM) in NIH-3T3 Cells [3]: 0.058 nM
Kd [4]: ≤ 0.012 nM
koff [4]: 0.00012 s⁻¹
kon [4]: ≥ 1e+07 M⁻¹ s⁻¹

B2: chBDI-5H1 (antibody, human IgG1, V domains shown)
VH: QVTLKESGPGILQPSQTLSLTCTFSGFSLSTFGMGVGWIRQPSGKGLEWLANIWWDDDKYYNPSLKNRLTISKDTSNSQAFLEITNVDTADTATYYCARISTGISSYYVMDAWGQGASVTVSS
VL: B1 VL with S32T, A51G, D52N, I96S, N97D
notes: also called chimeric BDI-5H1-F6
IC50 [1]: 1.04 nM
EC50 [2]: 0.12 nM
ratPDGF-BB Neutralization Potency (nM) in NIH-3T3 Cells (recombinant rat PDGF-BB): 0.17 nM
huPDGF-BB Neutralization Potency (nM) in NIH-3T3 Cells [3]: 0.275 nM
Kd [4]: ≤ 0.015 nM
koff [4]: 0.00015 s⁻¹
kon [4]: ≥ 1e+07 M⁻¹ s⁻¹

B3: hBDI-9E8.4 (antibody, V domains shown)
VH: EVTLRESGPALVKPTQTLTLTCTFSGFSLSTYGMGVGWIRQPPGKALEWLANIWWDDDKYYNPSLKNRLTISKDTSKNQVVLTMTNMDPVDTATYYCARIESIGTTYSFDYWGQGTMVTVSS
VL: EFVLTQSPGTLSLSPGERATLSCERSSGDIGDSYVSWYQQKPGQAPRLVIYADDQRPSGIPDRFSGSGSGTDFTLTISRLEPEDFAVYYCQSYDINIDIVFGGGTKVEIK
notes: Humanized IgG from pHybE expression vectors, made in HEK293 6E and protein A purified; also called h9E8.4
hPDGF-BB IC50 (nM), hPDGF-BB-induced NIH-3T3 cell proliferation [5]: 0.061 nM
IC50 [6]: 4.3 nM

B4: hBDI-9E8.11 (antibody, V domains shown)
VH: EVQLVESGGGLVQPGGSLRLSCAFSGFSLSTYGMGVGWIRQAPGKGLEWLANIWWDDDKYYNPSLKNRLTISKDTSKNQAYLQINSLRAEDTAVYYCARIESIGTTYSFDYWGQGTLVTVSS
VL: DFVLTQSPDSLAVSLGERATINCERSSGDIGDSYVSWYQQKPGQPPKNVIYADDQRPSGVPDRFSGSGSGNSASLTISSLQAEDVAVYFCQSYDINIDIVFGGGTKVEIK
notes: Humanized IgG from pHybE expression vectors, made in HEK293 6E and protein A purified
hPDGF-BB IC50 (nM), hPDGF-BB-induced NIH-3T3 cell proliferation [5]: 0.309 nM
IC50 [6]: 1.73 nM

B5: BDE-3C9-G4 (antibody, V domains shown)
VH: EVQLVESGGGLVQPGRSLKLSCAASGFTFSNYGMAWVRQAPTQGLEWVASITNSGGNTYYRDSVKGRFTISRDSAKNTQYLQMDSLRSEDTATYFCARHTPGANYFDYWGQGLMVTVSS
VL: DIQMTQSPPSLSASLGEKVTITCQASQSIKNYIAWYQLKPGTAPRLLMRYTSTLESGTPSRFSGSGSGRDYSFSISNVESEDIASYYCVQYANLYTFGGGTKLELK
notes: Rat hybridoma anti-human PDGFR-B monoclonal antibody, isotype IgG2b/κ
IC50 [7]: 0.832 nM

B6: BDE-4F2-D4 (antibody, V domains shown)
VH: QVQLKESGPGLMQPSQTLSLTCTVSGFSLTNYGVSWVRQFPGKGLEWIAAISSGGSTYYNSALKSRLSISRDTSRSQVFLKMNSLLTEDTAFYFCTRVYYGSNYFDYWGPGVMVTVSS
VL: DIVMTQTPSSQAVSAGEKVTMSCKSSQSLLYGGDQKNFLAWYQQKPGQSPKLLIYLASTRESGVPDRFIGSGSGTDFTLTISSVQAEDLADYYCQQHYGYPFTFGSGTKLEIK
notes: Rat hybridoma anti-human PDGFR-B monoclonal antibody, isotype IgG2a/κ
IC50 [7]: 0.527 nM

B7: hBDE-3C9.1 (antibody, V domains shown)
VH: B5 VH with R16G, K19R, T42G, Q43K, S74N, D84N, S88A, T93V, L113T
VL: DIQMTQSPSSLSASVGDRVTITCQASQSIKNYIAWYQLKPGKAPRLLMRYTSTLESGTPSRFSGSGSGRDYTFTISSLQPEDIATYYCVQYANLYTFGGGTKVEIK
notes: Humanized anti-human PDGFR-B IgG from pHybE expression vectors
IC50 [8]: 0.217 nM

B8: hBDE-3C9.2 (antibody, V domains shown)
VH: EVQLVESGGGLVQPGGSLRLSCAASGFTFSNYGMAWVRQAPGKGLEWVASITNSGGNTYYRDSVKGRFTISRDNAKNSLYLQMNSLRAEDTAVYYCARHTPGANYFDYWGQGTMVTVSS
VL: B7 VL with L38Q, M48I, T58V
notes: as for B7
IC50 [8]: 0.26 nM

B9: CODV022 (PR-1577056), anti-human VEGF-A/anti-human PDGF-BB cross-over DVD-Ig molecule (bispecific antibody, human IgG1, kappa, L234A L235A)
heavy: EVQLVQSGSELKKPGASVKVSCKASGYTFTNYGMYWVRQAPGQGLEWMGWINTETGKPTYADDFKGRFVFSLDTSVSTAYLQISSLKAEDTAVYYCARTNYYYRSYIFYFDYWGQGTMVTVSSGGGGSGGGEFVLTQSPGTLSLSPGERATLSCERSSGDIGESYVSWYQQKPGQAPRLVIYADDQRPSGIPDRFSGSGSGTDFTLTISRLEPEDFAVYYCQSYDINIDIVFGGGTKVEIKGGGSGASTKGPSVFPLAPSSKSTSGGTAALGCLVKDYFPEPVTVSWNSGALTSGVHTFPAVLQSSGLYSLSSVVTVPSSSLGTQTYICNVNHKPSNTKVDKKVEPKSCDKTHTCPPCPAPEAAGGPSVFLFPPKPKDTLMISRTPEVTCVVVDVSHEDPEVKFNWYVDGVEVHNAKTKPREEQYNSTYRVVSVLTVLHQDWLNGKEYKCKVSNKALPAPIEKTISKAKGQPREPQVYTLPPSREEMTKNQVSLTCLVKGFYPSDIAVEWESNGQPENNYKTTPPVLDSDGSFFLYSKLTVDKSRWQQGNVFSCSVMHEALHNAYTQKSLSLSPGK
light: EVTLRESGPALVKPTQTLTLTCTFSGFSLSTYGMGVGWIRQPPGKALEWLANIWWDDDKYYNPSLKNRLTISKDTSKNQVVLTMTNMDPVDTATYYCARIESIGTTYSFDYWGQGTMVTVSSGGGGSDTVLTQSPATLSLSPGERATLSCRASESVSTHMHWYQQKPGQAPRLLIYGASNLESGVPARFSGSGSGTDFTLTISSLEPEDFAVYFCQQSWNDPFTFGQGTKLEIKGGSRTVAAPSVFIFPPSDEQLKSGTASVVCLLNNFYPREAKVQWKVDNALQSGNSQESVTEQDSKDSTYSLSSTLTLSKADYEKHKVYACEVTHQGLSSPVTKSFNRGEC
notes: Cross-over DVD-Ig: the variable domains of the 4G8.3 (VEGF) and 9E8.4E (PDGF) sites are spread over both chains; also called CO-DVD-Ig
Kd [9]: 0.013 nM
kon [9]: 4.5e+06 M⁻¹ s⁻¹
Kd [10]: 0.0042 nM
kon [10]: 3.2e+07 M⁻¹ s⁻¹
